# Data: paper PMC4297981 (Scientific Reports, 2015)
# Biological target: the molecule itself
# Test: SDS-PAGE
protein,measurement,value
"integrin β1a-TMC variant L749C (transmembrane and cytoplasmic domains, V717-K798, cys-less background), reconstituted in POPC/POPG liposomes (domain or fragment, human, UniProt P05556-1 717-798, looked up) VVENPESPTGPDIIPIVAGVVAGIVLIGLALLCIWKLLMIIHDRREFAKFEKEKMNAKWDTGENPIYKSAVTTVVNPKYEGK",binding result,binds
